# Measured values from patent US20260069689A1 (Regeneron, published 2026).
# What was measured:
# [1] = target: T1, SARS-COV-2 RBD-MMH (SARS-COV-2 RBD extracellular domain with C-terminal myc-myc-hexahistidine tag) (SARS-CoV-2)
# [2] = target: T1, SARS-COV-2 RBD-MMH (SARS-COV-2 RBD …); experiment: SPR 37C, mAb captured, pH 7.4 vs pH 6.0
# [3] = target: SARS-CoV-2 RBD.mmh (Spike amino acids Arg319-Phe541 with C-terminal myc-myc-6-Histidine tag) (SARS-CoV-2, UniProt P0DTC2 319-541)
Binder,koff [1] [s⁻¹],t½ at pH 6.0 [1] [min],t½ at pH 7.4 [1] [min],t½ Ratio of pH 7.4 to pH 6.0 [2],IC50 [3] [nM]
"mAb14280 (antibody, V domains shown) VH: QVQLVQSGAEVKKPGASVRVSCKASGYTFTGNYIHWVRQAPGQGLEWMAWINPNSGGKNYAQKFQGRVTLTRDTSVNTAYMELSRLRSDDTAMYYCARDVNYNILTGPGGLWGQGTLVTVSS VL: QSALTQPPSASGSPGQSVTISCTGTSSDVGGYNFVSWYQQHPGKAPKLMIYEVSKRPSGVPDRFSGSKSGNTASLTVSGLQAEDEADYYCSSYAGSNNFVFGTGTKVTVLG",0.019,0.6,0.5,0.8,1.74
"mAb14256 (antibody, V domains shown) VH: QVQLQESGPGLVKPSETLSLTCTVSGGSISSHYWSWIRQPPGKGLEWIGYIYYSGSSNYNPSLKSRVTISVDTSKNQFSLKLNSVTAADTAVYYCARHYDILTGFDWFDPWGQGTLVTVSS VL: QSVLTQPPSVSGAPGQRVTISCTGSSSNIGTHYDVHWYQQLPGTAPKLLIYGNSNRPSGVPDRFSGSKSGTSASLAITGLQAEDEADYYCQSFDNSLTAPYVFGTGTKVTVLG",0.00955,1.2,1,0.8,0.48
"mAb14281 (antibody, V domains shown) VH: QVQLVQSGADVKKPGASVKVSCKTSGYIFTGYYIHWVRQAPGQGLEWMGWINPNSGGTNSAQKFQGRVTMTRDTSISTVYMELSRLRSDDTAVYYCAKSNSFSVLDYNFDYWGQGTLVTVSS VL: SSELTQDPAVSVALGQTVRITCQGDSLRSYYASWYQQKPGQAPVLVIYDKNNRPSGIPDRFSGSSSGNTASLTITGAQAEDEADYYCNSRDSSRNHLVVFGGGTKLTVLG",0.00734,1.6,1.8,1.1,0.397
"mAb14247 (antibody, V domains shown) VH: QITLKESGPTLVKPTQTLTLTCTFSGFSLSTSAVGVGWIRQPPGKALEWLALIYWDDDKRYSPSLKSRLTITKDTSKNQLVLTMTNVDPVDTATYYCAHHTIQLIFDYWGQGTLVTVSS VL: QSALTQPASVSGSPGQSITISCTATSSDVGNYNYVSWYQQHPGKAPKLMIYEVSNRPSGVSNRFSGSKSGNTASLTISGLQAEDEADYYCSSYTSSSTPLVFGGGTKLTVLG",0.00167,6.9,7.3,1.1,0.446
"mAb14235 (antibody, V domains shown) VH: QITLKESGPTLVKPTQTLTLTCTFSGFSLNTGGVGVGWIRQPPGNALEWLALIYWDDDKRYNPSLKTRLTISKDTSKNQVVLTMTNMDPVDTATYFCAHLTIAVIVDFWGQGTLVTVSS VL: QSALTQPASVSGSPGQSITISCTATSSDVGTYNYVSWFQHHPGKAPKLMIYEVTNRPSGVSNRFSGSKSGNTASLTISGLQAEDEADYYCSSYTTTSIVFGGGTKLTVLG",0.00114,10.1,7.8,0.8,0.234
"mAb14234 (antibody, V domains shown) VH: QVQLVESGGGVVQPGRSLRLSCAASGFTFSSYGIHWVRQAPGKGLEWVAIIWYDGSEKYYADSVKGRFTISRDNSKNTLFLQMNSLEAEDTAVYYCARGPDLLTGYYNYFYYGMDVWGQGTTVTVSS VL: QSVLTQPPSVSGAPGQRVTISCTGSSSNIGIGYDVHWYQQLPGTVPKLLIYGNTNRPSGVPDRFSGSKSGTSASLAITGLQAEDEADYYCQSYDSSLSSYVFGTGTKVTVLG",0.00143,8.1,5.2,0.6,4.62
"mAb14255 (antibody, V domains shown) VH: QVQLQESGPGLVKPSETLSLTCTVSGGSISGYYWSWIRQPPGKGLDWIGYIYYRGNTNYNPSLKSRVTISVDTSNNQFSLKLSSVTAADTAVYYCARYGEGYGDASGYHFDYWGQGTLVTVSS VL: QSALTQPASVSGSPGQSITISCTGTSSDVGSYNLVSWYQQHPGKAPKLMIYEDSKRPSGVANPFSGSKSGNTASLTISGLQAEDEADYYCSSYAGSSTWVFGGGTKLTVLG",0.00513,2.3,2.3,1,0.157
"mAb14282 (antibody, V domains shown) VH: QVQLVQSGAEVKKPGASVKVSCKASGYIFTDHYMHWVRQAPGQGLEWMGWINPNSGATNYAQNFQGRVTMTRDTSIITVYMELSRLRSDDTAVYYCARDSSPYMIRYTMDVWGQGTTITVSS VL: QSALTQPASVSGSPGQSITISCTGTSSDVGSYNLVSWYQQHPGKAPKLMIYELTKRPSGVSNRFSGSKSGNTASLTISGLQAEDEADYYCSSYRGSVTDVVFGGGTKLTVLG",0.00985,1.2,0.9,0.8,0.502
"mAb14258 (antibody, V domains shown) VH: QLQLQESGPGLVKPSETLSLICTGSGDSISSSHYYWGWIRQPPGKGLEWIGSTYFSGSTYYNPSLKSRVSISVDTSKNQVSLKLISVTAADTAVYYCAREMGATLGDYWGPGTLVTVSS VL: QSVLTQPPSASGTPGQRVTISCSGSSSNIGNNYVYWYQQFPGTTPRLLIYRNNERPSGVPDRFSGSKSGTSASLVISGLRSEDEADYYCAAWDDSLSAHYVFGTGTKVTVLG",–,21.1,5.4,0.3,0.121
"mAb14283 (antibody, V domains shown) VH: QVQLQESGPGLVKPSGTLSLTCDVSGGSISSNNWWSWVRQRPGKGLQWIGEIYHNENTNYNPSLKSRVIMSIDKSKNQFSLKLTSVTAADTAVYYCARGDVLDWFDPWGQGTLVTVSS VL: QSALTQPASVSGSPGQSTTISCTGTSSDVGGYNYVSWYQQYPGKAPKLMIYDVTNRPSGVSHRFSGSKSGNTASLTISGLQAEDEADYYCSSYTSSSTVIFGGGTKLTVLG",0.002,5.8,6.9,1.2,0.373
"mAb14257 (antibody, V domains shown) VH: EVQLVESGGGLVQPGGSLRLSCAASGFTVSRSYMNWVRQAPGKGLEWVSVVFTGGTTKHTDSVKGRFTISRDNSMNTLYLQMNSLRPEDTAVYYCARVAIVETTGAFDIWGQGTMVTVSS VL: QSVLTQPPSVSGAPGQRVTISCTGTSSNIGADFDVHWYQQFPGTAPKLLIYGHTNRPSGIPDRFSGSKSGTSASLAITGLQAEDEADYYCQSYDSSLSGSVVFGGGTKLTVLG",0.00842,1.4,1.5,1.1,0.365
